The values that follow come from patent publication WO1995033832A1.

Assay [1] has as its target recombinant Hepatitis B virus surface antigen (HBsAg) (Hepatitis B virus). Put plainly: ELISA on coated recombinant HBsAg. (In general: In an ELISA, binding on a coated surface is turned into a signal by an enzyme label.)
The target is the same in assay [2]. Put plainly: ELISA; scFv preincubated with HBsAg in solution, molar ratio fragment:antigen 1:0.14; inhibition of binding to coated HBsAg.
Assay [3] shares this target. Put plainly: immunoaffinity column, scFv on Sepharose CL-4B; Expt. 3, pure HBsAg, 2 mg loaded.
Assay [4] has the same target. Put plainly: immunoaffinity column, scFv on Sepharose CL-4B; Expt. 4, crude semipurified HBsAg, 2 mg loaded.
Assay [5] has the same target. Put plainly: ELISA; scFv without HBsAg in solution, molar ratio fragment:antigen 1:0 (reference).
Assay [6] shares this target. Nature of the assay: immunoaffinity column, scFv on Sepharose CL-4B; Expt. 5, crude semipurified HBsAg, 2 mg loaded.
The target is the same in assay [7]. Put plainly: immunoaffinity column, scFv on Sepharose CL-4B; Expt. 6, crude semipurified HBsAg, 2 mg loaded.
For assay [8] the target is unchanged. Nature of the assay: ELISA, plates coated with recombinant HBsAg 5 ug/ml; renatured and IMAC-purified scFv; detected with rabbit anti-Fab and Protein A-HRP.
The target is the same in assay [9]. Put plainly: scFv on Sepharose CL-4B; saturating pure HBsAg applied, eluted with 3 M KSCN (gel without ligand: 0.012 mg).
For assay [10] the target is unchanged. Put plainly: ELISA; scFv preincubated with HBsAg in solution, molar ratio fragment:antigen 1:3.5; inhibition of binding to coated HBsAg.
Assay [11] shares this target. Nature of the assay: ELISA, plates coated with recombinant HBsAg 5 ug/ml; renatured scFv, not purified; detected with rabbit anti-Fab and Protein A-HRP.
For assay [12] the target is unchanged. Put plainly: immunoaffinity column, scFv on Sepharose CL-4B; Expt. 2, pure HBsAg, 2 mg loaded.
The target is the same in assay [13]. Put plainly: ELISA; scFv preincubated with HBsAg in solution, molar ratio fragment:antigen 1:0.7; inhibition of binding to coated HBsAg.
For assay [14] the target is unchanged. Nature of the assay: immunoaffinity column, scFv on Sepharose CL-4B; Expt. 1, pure HBsAg, 2 mg loaded.

For orientation: % inhibition means the share of the control response that was lost under treatment. “anti-HBsAg scFv (recombinant single chain Fv antibody fragment, VH-linker-VL, from MAb CB-Hep.1, expressed in E. coli from pPACIB.1/scFv anti HBsAg)”: the optimal binding concentration (saturation) in assay [1] came to 37 µg/mL. The % inhibition in [2] came to 12.8%; in assay [5], 0%; in [10] it was 95.1%; in assay [13], 76.4%. For the same substance, the mg HBsAg eluted/ml gel (mg HBsAg eluted/ml gel) in [3] came out at 0.51; in assay [4], 0.45; in assay [6], 0.26; in assay [7], 0.42; in assay [12] it was 0.34; in [14] it was 0.54. Further, the values for the Absorbance at 492 nm (absorbance at 492 nm) in assay [8] and in [11] were 0.68 and 1.54, respectively. Besides, the Amount of eluted HBsAg in assay [9] was 0.126 mg.
